Measurements from patent publication US20210317227A1.

Assays:
Experiment in all cases: cell-based or functional assay
[1] = target: FcγRIIa on M2c macrophages (secondary ADCP assay) (UniProt P12318)
[2] = target: FcγRIIIa on NK cells (secondary ADCC assays) (UniProt P08637)
[3] = target: human FcγRIIa-H variant on Jurkat effector cells (human) (UniProt P12318)
[4] = target: FcγRIIIa on Jurkat effector cells (UniProt P08637)

EC50 (nM) Mean [1] [nM]	EC50 (nM) Mean [2] [nM]	EC50 (nM) Mean [3] [nM]	EC50 (nM) Mean [4] [nM]	Substance
0.37				afucosylated anti-CD20 IgG1 monoclonal antibody (obinutuzumab)
	0.0054			afucosylated anti-PD-L1 IgG1 monoclonal antibody (avelumab)
0.82	0.033	7.1	7.1	fucosylated anti-CD20 IgG1 monoclonal antibody (obinutuzumab)
			0.049	fucosylated anti-PD-L1 IgG1 monoclonal antibody (avelumab)
